Laboratory results published in US20240132572A1.

How the values were obtained:
[1] = biological target: IFN alpha receptor (IFNAR) (UniProt P17181); assay: cell-based or functional assay
[2] = biological target: IFN-alpha receptor 1 (IFNAR1) (UniProt P17181); assay: SPR (Biacore X100); rhIFNAR2 immobilised on CM5 chip; 6.25-100 nM IFN fusion mixed with 100 nM IFNAR1 injected (ternary complex)

interferon alpha Fc fusion protein (IFNα-Fc)
IC50 (nM), antiviral activity (cytopathic effect inhibition, A549 cells, EMCV) [1]: 0.0313 nM
Kd [2]: 18 nM

natural fibroblast derived human IFNβ-1a (Rebif®) (from UniProt P01574 22-187) (ligand)
inhibition of osteopontin (OPN) production in stimulated human PBMC at 1.5 ng/mL [1]: 88.4%
inhibition of osteopontin (OPN) production in stimulated human PBMC at 10 ng/mL [1]: 81.3%
